Laboratory results: the supplement of paper PMC9170038

Test system: MS2 coat protein
Assay: apparent KD of MS2 coat protein; designed switch direction (-1 OFF switch, 1 ON switch): 1; higher = weaker reporter binding
Procedure, shortened: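 Each step of the titration lasted 0.8–1.5 h at the lowest concentration and 10–20 min at the highest. The protein, SNAP-549-labelled MS2 coat protein, went from 0.7 or 1.5 nM doubling to 3 µM over RNA switches transcribed on Illumina chips by stalled E. coli RNA polymerase. Normalised cluster fluorescence was curve-fitted, and the per-design median over clusters is given as apparent KD.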

[1] = Eterna round: R95, input ligand: FMN 200 uM
[2] = Eterna round: R95, input ligand: microRNA oligo, concentration not stated
[3] = Eterna round: R95, input ligand: none
[4] = input ligand: microRNA oligo, concentration not stated

Row | Sequence | apparent KD of MS2 coat protein [1] [nM] | apparent KD of MS2 coat protein [2] [nM] | apparent KD of MS2 coat protein [3] [nM] | apparent KD of MS2 coat protein (input ligand: FMN 200 uM) [nM] | apparent KD of MS2 coat protein [4] [nM] | apparent KD of MS2 coat protein (input ligand: none) [nM]
1 | AACUAUCUAUCUGAGGAUAUCAUGAAAUAAACAUGAGGAUCACCCAUGUGCAGGAAAACUGCAUAUGAGAAGGCAGAUAGAUUGA [salish99_ss2_r3_021] (puzzle: Same State 2) | 66.6 | 1250 | 2000 |  |  | 
2 | AAUUAAGAUCAAGGAUAUCACGUCGUUUAGACGUGAGAAGGUGAUAAUUACAUGAGGAUCACCCAUGUAUAACAUGAAUUAAUU [SSNG1/9-B3] (Eterna round: R96, puzzle: Same State NG 1) |  |  |  | 25.5 | 27.5 | 32.1
3 | GGAGCUGGCACCGAGGAUAUUCAUAUUAAAACAUGAGGAUCACCCAUGUAGGCCAGAAGGCCUUGGGAGAAGGCGGAUCAGCUCG [Xeonanis - 12] (puzzle: Same State 2) | 30.8 | 532 | 532 |  |  | 
4 | GACGUGAAGGCAGGAUAUGGGAAAGGAAGUGUACCAGAAGGGCCUGGAAAACAUGAGGAUCACCCAUGUGAACCCACGUCAGUU [PowerStrip SSNG 1.26] (Eterna round: R96, puzzle: Same State NG 1) |  |  |  | 16 | 35.4 | 27.9
5 | GGUAAGAAUUAAGGAUAUCGAGUACAUAUGUUUAACAUGAGGAUCACCCAUGUGGGUUGCGGUAUCGAGAAGGUAAAAUAUAAG [Mat - same State NG 2 - JL mod - D64] (Eterna round: R96, puzzle: Same State NG 2) |  |  |  | 51.8 | 26.4 | 75.7
6 | AGCUAGUACCGAGGAUAUACGUACAUGAGGAUCACCCAUGUAUACAUGAUUUAAUGAGACUACAUGUAGAAGGCGGUACUAGCA [JL SSNG2 1.24] (Eterna round: R96, puzzle: Same State NG 2) |  |  |  | 12.4 | 39 | 53.7
7 | GCACUGGCGGUAGGAUAUCUAGGAUAUGGGAAAGACUAAGUCUGUAGGUCACCUAACCCAGAAGGAGAGAAGGACCCUGUAAGG [pwkr ssNG2 2FMN + F9.22] (Eterna round: R96, puzzle: Same State NG 2) |  |  |  | 6.55 | 1.33 | 18.1
8 | UGUUGGAAGUGAGGAUAUGGGAAAGGAAGUGUACCAGAAGGCACAUCUAGCCGGAACAUGAGGAUCACCCAUGUACCACACUAC [PowerStrip SSNG 1.15] (Eterna round: R96, puzzle: Same State NG 1) |  |  |  | 128 | 24.6 | 30.7
9 | CGCCAACGCAUAGGAUAUGCUUGUGUGGAUCGGGCAGAAGGGUGGUUGGAAACAUGAGGAUCACCCAUGUAAAAGUAAGAAAAU [Rierinqu] (Eterna round: R96, puzzle: Same State NG 1) |  |  |  | 1450 | 926 | 668
10 | GAGUGACAUGAGGAUCACCCAUGUAGAAUAGAACAAGGAUAUGUGGAAGGCGGAGGAGAGACAGAAGGUGUUGAAG [JR_SS1_Sub057] (puzzle: Same State 1) | 49 | 46 | 67.7 |  |  | 
11 | AGUCCAGCAUAAGCUGGACAAAAGCAUGUACAUGAGGAUCACCCAUGUCAUGUACAAGCUUUUUGCUCGUCUUAAUA [Mat - hsa-mir-208a - Mod of JL - D36] (puzzle: Sensor for hsa-mir-208a) | 446 | 19.8 | 500 |  |  | 
12 | AGUAGUGUAACAUGAGGAUCACCCAUGUAAGAAGAUGUAACCUAGGAUAUGGAUGAUAUGUUAGACCAGAAGGAGGAUUGUUUA [JR_SSNG3_Sub039] (Eterna round: R96, puzzle: Same State NG 3) |  |  |  | 43.2 | 116 | 207
13 | GGUCCAGCCUGAGCUGGACAAAAGCAUGUACAUGAGGAUCACCCAUGUCAUGUACAAGCUUUUUGUUCGUCUUAAAA [JL mod - D87 - 13] (puzzle: Sensor for hsa-mir-208a) | 420 | 15.6 | 344 |  |  | 
14 | UUAAUGAUGAUAGGAUAUACAUGAGGAAUUCUCGUAGAAGGAUCAUGACAUGAGGAUCACCCAUGUAACGCUCCGUAGAGCGUA [JL SSNG1 1.15] (Eterna round: R96, puzzle: Same State NG 1) |  |  |  | 572 | 385 | 1060
15 | AAAGUGGGCUUAUUUGGAUUCUCGUCUGGACAUGAGGAUCACCCAUGUAGGCGCUUGGUCUGAGACUAAGCAGCCGA [Didiinso] (Eterna round: R96, puzzle: Sensor for hsa-mir-208a) |  |  |  | 113 | 28.5 | 75.3
16 | AACAAUCUAUCUGAGGAUAUCAUGAGAAUAACAUGAGGAUCACCCAUGUGCAGGAAAACUGCAUAUGAGAAGGCAGAUAGAUUGG [Mat - Same State 2 - Mod - D21] (puzzle: Same State 2) | 78.6 | 546 | 2730 |  |  | 
17 | GUGCGGGUGCCACAGGAUAUACGUGGAUCGACAUGAGGAUCACCCAUGUAUAUCCUAAUAAUUGCGUAGAAGGGUGGUCAGCCGU [Enbebiqu] (puzzle: Same State 2) | 85.9 | 308 | 340 |  |  | 
18 | CUGCAACAUGAGGAUCACCCAUGUAACCCAAUUAUAGGAUAUGUGAUGGUGAUCGACAUGACAGAAGGGUGAUUGG [Arinra] (puzzle: Same State 1) | 199 | 99.4 | 46.4 |  |  | 
19 | ACGCUCCAUGGAGGAUAUGGGCCUGCCCGGGAUACCGGGCCUAACACAUGAGGAUCACCCAUGUCCCAGAAGGCCGCUGGAGCC [Atgeenbite] (Eterna round: R96, puzzle: Same State NG 2) |  |  |  | 19.2 | 62.3 | 98.7
20 | GCUCGACUGAUGGCCUACAUGAGGAUCACCCAUGUGAUUGGGCAGGAUAUCUAGAUGCAGGAUGUAGAGAAGGGCCAGUCGAGC [SameState NG3 #45] (Eterna round: R96, puzzle: Same State NG 3) |  |  |  | 1130 | 477 | 503
21 | GGUAGGUUACUACCAACACAUGAGGAUCACCCAUGUUUUCAUGAGGAUAUGGUACCUAUUUGGUACCAGAAGGCAUGGUUAAUU [Fiskers NG3ss - 18] (Eterna round: R96, puzzle: Same State NG 3) |  |  |  | 48.6 | 76.8 | 104
22 | GCUGCAAUUAACGCCUACAUGAGGAUCACCCAUGUAUGUAGGCAGGAUAUCGUUUGCAAAGCAAACGAGAAGGGCUGUAGUAGC [Mat - Same State NG 3 - JL Mod - D37] (Eterna round: R96, puzzle: Same State NG 3) |  |  |  | 65.4 | 83.4 | 113
23 | CCGUCGGAGGUAGGAUAUGGAGCCUUAUUGGCUCCAGAAGGAUCAAAUAAAUUAACAAACAUGAGGAUCACCCAUGUCCGACGG [Eli NG1ss - 86] (Eterna round: R96, puzzle: Same State NG 1) |  |  |  | 156 | 331 | 558
